Experimental data: patent US20210101947A1 (UNIVERSITY OF SASKATCHEWAN, published 2021)
Primed or numbered codes have the meaning given here. No end group written: not given here. FITC′ = not defined here

Target: T1, TAT2 cell penetrating peptide
T1 construct: Synthesized; two copies of a 9 amino acid TAT peptide
T1 peptide: RKKRRQRRRRKKRRQRRR
Experiment: peptides mixed; uptake into MDA-MB-231 cells seen by fluorescence microscopy
Description: B. Using 0.1 mg/ml C43-4-FITC, weak toxicity is only observed when combined with TAT2, which is worsened with DOX. An equal number of cells were treated with TAT2 and C43-4-FITC alone or in complex, +/−0.5 uM DOX. 24 hours later, 4 random fields of cells were counted and combined. C. MDA-MB-231 cells were treated with 0.001 mg/ml peptide/TAT2 complex for 12 hours, or left untreated. Lysates were prepared and assessed with the antibodies shown. Cyclin B—APC substrate; the PARP […] cleavage fragment is an early sign of apoptosis; induction of total PARP indicates DNA damage; TFPI1 is a nucleolar MDR marker. D. Mice growing MDA-MB-231 cells stably expressing pcDNA-C43-4, injected or left untreated, with the C43-4-FITC/TAT2 complex (n=2 each). 100 ul of 0.01 mg/ml C43-4-FITC peptide was mixed with 25 ul of 1 mg/ml TAT2. The entire 125 ul was given to the mouse using an intraperitoneal (IP) injection. 1 injection/mouse was given in this experiment.
The 20 amino acid C43-4 peptide was synthesized with a C-terminal FITC epitope to allow visualization of the peptide within the cell using fluorescent microscopy. The TAT2 cell penetrating peptide, encoding 2 copies of a 9 amino acid peptide ([…]; SEQ ID NO: 26) was also synthesized. […] After 24 hours, and prior to imaging, 4 independent microscope fields were counted for each sample and added together to get a total cell number. […]

B1: C43-4-FITC (peptide)
peptide: NGSSHNDLRVRRLTLISRLC-{FITC′}
notes: The synthesized 20 amino acid C43-4 peptide with a C-terminal FITC; also called C43-4-FITC peptide
B1: binds.
